# The supplement of paper PMC7877785
# ± gives the uncertainty stated by the source.
# Assay: self-splicing fitness, log relative to wild type (ln ratio); higher = more splicing; Tetrahymena group I intron in knt gene, E. coli kanamycin selection, DiMSum; sequences stand for … in CUCUCU…GGAGGGAAAAGUUAUCAGGCAUGCACCUGGUAGCUAGUCUUUAAACCAAUAGAUUGCAUCGGUUUAAAAGGCAAGACCGUCAAAUUGCGGGAAAGGGGUCAACAGCCGUUCAGUACCAAGUCUCAGGGGAAACUUUGAGAUGGCCUUGCAAAGGGUAUGGUAAUAAGCUGACGGACAUGGUCCUAACCACGCAGCCAAGUCCUAAGUCAACAGAUCUUCUGUUGAUAUGGAUGCAGUUCACAGACUAAAUGUCGGUCGGGGAAGAUGUAUUCUUCUCAUAAGAUAUAGUCGGACCUCUCCUUAAUGGGAGCUAGCGGAUGAAGUGAUGCAACACUGGAGCCGCUGGGAACUAAUUUGUAUGCGAAAGUAUAUUGAUUAGUUUUGGAGUACUCGUGGUCG
# Outline: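 Library with all eight P1ex-region intron nucleotides randomised, intron inside the knt kanamycin-resistance gene on pET-22b(+), in E. coli BL21(DE3). Cells grew overnight at 37°C or 30°C on LB agar with or without 25 μg/mL kanamycin (plus 100 μg/mL carbenicillin, 50 μM IPTG, 0.2% rhamnose), in six replicate transformations. Pooled colonies were amplicon-sequenced on Illumina HiSeq 2500. DiMSum fitness is the error-weighted combination of wild-type-normalised replicate fold changes, kanamycin versus none.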
Sequence,self-splicing fitness (ln) (30 °C),self-splicing fitness (ln) (37 °C)
UGGAAGCAAUAUUACGUGGU,-3.53 ± 0.49,-2.25 ± 0.3
AAGCAGCAAUAUUACGGUUU,-2.78 ± 0.12,-0.354 ± 0.096
CGAUAGCAAUAUUACGGGUG,-0.832 ± 0.069,-0.736 ± 0.074
AAGCAGCAAUAUUACGGGUC,-3.12 ± 0.12,-2.61 ± 0.18
AACCAGCAAUAUUACGCAAC,-2.78 ± 0.13,-0.698 ± 0.11
GUCAAGCAAUAUUACGUCAA,-2.48 ± 0.1,-1.87 ± 0.11
GGAGAGCAAUAUUACGCCUU,-2.58 ± 0.35,–
GAACAGCAAUAUUACGGGCU,-3.02 ± 0.15,-0.92 ± 0.11
AUAAAGCAAUAUUACGCAUC,-3.37 ± 0.26,-1.74 ± 0.3
AAGAAGCAAUAUUACGAUUU,-0.181 ± 0.065,0.764 ± 0.1
AGGCAGCAAUAUUACGCCUG,-1.78 ± 0.14,-0.748 ± 0.14
UGGUAGCAAUAUUACGAAAU,-2.72 ± 0.28,-3.17 ± 0.31
AUCCAGCAAUAUUACGCCUG,-3.86 ± 0.26,-2.09 ± 0.16
CGGUAGCAAUAUUACGGCGA,-2.69 ± 0.27,-2.13 ± 0.26
CUUGAGCAAUAUUACGACGG,-1.97 ± 0.2,-1.52 ± 0.26
CGUCAGCAAUAUUACGUUUG,-1.14 ± 0.062,-0.102 ± 0.079
AAUAAGCAAUAUUACGCGAU,-2.22 ± 0.23,-2.98 ± 0.35
UCGUAGCAAUAUUACGCCAA,-3.89 ± 0.3,-1.4 ± 0.17
UAAAAGCAAUAUUACGCUUG,-1.9 ± 0.12,-0.981 ± 0.14
CGUCAGCAAUAUUACGUGAG,-0.162 ± 0.04,-0.124 ± 0.061
AGAUAGCAAUAUUACGUUAG,-4.56 ± 0.31,-0.345 ± 0.15
AAAAAGCAAUAUUACGUGCA,-0.742 ± 0.056,-0.201 ± 0.072
UUCAAGCAAUAUUACGAAGA,-2.03 ± 0.19,-1.26 ± 0.19
CGAUAGCAAUAUUACGUUCA,-0.0649 ± 0.082,0.251 ± 0.1

Sequence,self-splicing fitness (ln) (30 °C),self-splicing fitness (ln) (37 °C)
UAUGAGCAAUAUUACGCCUA,-1.59 ± 0.18,-0.615 ± 0.21
GCUCAGCAAUAUUACGUAGG,0.139 ± 0.052,0.32 ± 0.076
ACUCAGCAAUAUUACGUCGC,-2.57 ± 0.24,-0.332 ± 0.17
GGUAAGCAAUAUUACGGAGG,–,-3.58 ± 0.42
CUAUAGCAAUAUUACGUGCU,-3.61 ± 0.33,-2.56 ± 0.32
UGCAAGCAAUAUUACGCAUU,-4.37 ± 0.27,-3.61 ± 0.26
CUUAAGCAAUAUUACGAGGG,-2.95 ± 0.21,-2.85 ± 0.29
GAGUAGCAAUAUUACGAUGA,-1.87 ± 0.2,-2.22 ± 0.23
CGAUAGCAAUAUUACGCAUC,-3.16 ± 0.31,-1.94 ± 0.38
AACUAGCAAUAUUACGUUGG,-3.74 ± 0.22,-3.5 ± 0.22
GUCAAGCAAUAUUACGGAGU,-2.1 ± 0.12,-0.536 ± 0.12
CCUAAGCAAUAUUACGGCUA,-3.69 ± 0.47,-3.14 ± 0.25
CGUGAGCAAUAUUACGAACU,-2.23 ± 0.3,-0.177 ± 0.29
CUCUAGCAAUAUUACGGCAG,-2.41 ± 0.28,-2.72 ± 0.44
GGCCAGCAAUAUUACGCCGC,-4.33 ± 0.39,–
AAUAAGCAAUAUUACGCGAC,-1.61 ± 0.14,-1.46 ± 0.14
AGGCAGCAAUAUUACGUUUC,-2.17 ± 0.095,-1.75 ± 0.15
CGAAAGCAAUAUUACGGUAC,-2.51 ± 0.29,–
UACUAGCAAUAUUACGGUUA,-0.377 ± 0.1,0.35 ± 0.12
UCAUAGCAAUAUUACGUUGU,-4.35 ± 0.23,-2.77 ± 0.21
CCAUAGCAAUAUUACGUAGU,-3.93 ± 0.24,-2.14 ± 0.23
UACAAGCAAUAUUACGUUGC,-4.71 ± 0.42,-2.94 ± 0.27
GUCCAGCAAUAUUACGCCCA,0.224 ± 0.26,-0.451 ± 0.21
CCAUAGCAAUAUUACGACCG,-0.0743 ± 0.15,-0.0737 ± 0.22
